pIC50, pKd: −log10 of the molar value. One block for each sequence: values may come before it.
Tests used:
HLA-B*57:01 [1] = test: IEDB peptide-MHC binding, purified MHC/competitive/radioactivity; filed as Kd, often an IC50 or EC50 that approximates it; ≥ and ≤ were set here for values at or beyond the usual limits of such assays
HLA-B*58:01 [2] = test: as above
HLA-A*02:01 [3] = test: IEDB peptide-MHC binding, purified MHC/direct/fluorescence; filed as Kd, often an IC50 or EC50 that approximates it; ≥ and ≤ were set here for values at or beyond the usual limits of such assays
HLA-A*03:01 [4] = test: as above
HLA-A*11:01 [5] = test: as above
HLA-A*24:02 [6] = test: as above
HLA-A*26:01 [7] = test: as above
HLA-A*31:01 = test: as above
HLA-A*69:01 [8] = test: as above
HLA-B*07:02 = test: as above
HLA-B*08:01 = test: as above; settings: source organism: Influenza A virus (A/chicken/Hunan/fg/2004(H5N1))
HLA-B*15:01 [9] = test: as above
HLA-B*27:05 = test: as above
HLA-B*40:01 = test: as above
HLA-B*44:02 = test: as above
HLA-B*58:01 [10] = test: as above
HLA-B*15:17 [11] = test: as above; settings: source organism: Yellow fever virus
HLA-B*57:01 [12] = test: as above; settings: source organism: Yellow fever virus
HLA-B*08:02 = test: as above; settings: source organism: Vibrio parahaemolyticus AQ3810
HLA-A*02:01 [13] = test: IEDB peptide-MHC binding, purified MHC/competitive/fluorescence; ≥ and ≤ were set here for values at or beyond the usual limits of such assays
HLA-A*03:01 [14] = test: as above
HLA-A*11:01 [15] = test: as above
HLA-A*24:02 [16] = test: as above
HLA-B*51:01 [17] = test: IEDB peptide-MHC binding, purified MHC/direct/fluorescence; filed as Kd, often an IC50 or EC50 that approximates it; ≥ and ≤ were set here for values at or beyond the usual limits of such assays
HLA-A*01:01 = test: as above
HLA-B*18:01 [18] = test: as above
HLA-B*46:01 [19] = test: as above
HLA-A*02:01 [20] = test: IEDB peptide-MHC binding, purified MHC/competitive/fluorescence; filed as Kd, often an IC50 or EC50 that approximates it; ≥ and ≤ were set here for values at or beyond the usual limits of such assays; settings: source organism: Homo sapiens
HLA-A*26:01 [21] = test: as above; settings: source organism: Homo sapiens
HLA-A*69:01 [22] = test: as above; settings: source organism: Homo sapiens
HLA-B*15:01 [23] = test: as above; settings: source organism: Homo sapiens
HLA-B*15:17 [24] = test: as above; settings: source organism: Homo sapiens
HLA-B*18:01 [25] = test: as above; settings: source organism: Homo sapiens
HLA-B*27:03 = test: as above; settings: source organism: Homo sapiens
HLA-B*39:01 = test: as above; settings: source organism: Homo sapiens
HLA-B*46:01 [26] = test: as above; settings: source organism: Homo sapiens
HLA-B*51:01 [27] = test: as above; settings: source organism: Homo sapiens
HLA-B*57:01 [28] = test: as above; settings: source organism: Homo sapiens
HLA-A*24:02 [29] = test: IEDB peptide-MHC binding, purified MHC/competitive/radioactivity; filed as Kd, often an IC50 or EC50 that approximates it; ≥ and ≤ were set here for values at or beyond the usual limits of such assays; settings: source organism: Dengue virus 3 Martinique/1243/1999
[30] = source organism: Dengue virus 1 Brazil/97-11/1997
[31] = source organism: Influenza A virus (A/chicken/Hunan/fg/2004(H5N1))
[32] = source organism: Dengue virus 4 Philippines/H241/1956
[33] = source organism: Dengue virus 2 Jamaica/1409/1983
[34] = source organism: Sudan ebolavirus
[35] = source organism: Zaire ebolavirus
[36] = source organism: Vaccinia virus Copenhagen
[37] = source organism: Dengue virus 3 Martinique/1243/1999
[38] = source organism: Giardia lamblia ATCC 50803
[39] = source organism: Escherichia coli O157:H7
[40] = source organism: Lassa virus Josiah
[41] = source organism: Bacillus anthracis
[42] = source organism: Yersinia pestis

Sequence: CTSQILLMRT
pKd (HLA-B*57:01 [1]; [30]): 5.62 | pKd (HLA-B*58:01 [2]; [30]): 4.77

Sequence: DTVNRTHQY
pKd (HLA-A*02:01 [3]; [31]): ≤ 4.70 | pKd (HLA-A*03:01 [4]; [31]): ≤ 4.70 | pKd (HLA-A*11:01 [5]; [31]): ≤ 4.70 | pKd (HLA-A*24:02 [6]; [31]): ≤ 4.70 | pKd (HLA-A*26:01 [7]; [31]): 8.26 | pKd (HLA-A*31:01; [31]): ≤ 4.70 | pKd (HLA-A*69:01 [8]; [31]): ≤ 4.70 | pKd (HLA-B*07:02; [31]): ≤ 4.70 | pKd (HLA-B*08:01): ≤ 4.70 | pKd (HLA-B*15:01 [9]; [31]): ≤ 4.70 | pKd (HLA-B*27:05; [31]): ≤ 4.70 | pKd (HLA-B*40:01; [31]): ≤ 4.70 | pKd (HLA-B*44:02; [31]): ≤ 4.70 | pKd (HLA-B*58:01 [10]; [31]): ≤ 4.70

Sequence: ESSSNPTIEE
pKd (HLA-B*57:01 [1]; [32]): 5.63 | pKd (HLA-B*58:01 [2]; [32]): 5.02

Sequence: ESWIVDRQW
pKd (HLA-B*15:17 [11]): 6.87 | pKd (HLA-B*57:01 [12]): 7.71

Sequence: FGSLGGVFTS
pKd (HLA-B*57:01 [1]; [33]): 5.66 | pKd (HLA-B*58:01 [2]; [33]): 5.27

Sequence: FLRKHNEGL
pKd (HLA-B*08:02): 5.76

Sequence: GILGSLGLR
pIC50 (HLA-A*02:01 [13]; [34]): 5.44 | pIC50 (HLA-A*03:01 [14]; [34]): 4.82 | pIC50 (HLA-A*11:01 [15]; [34]): 5.42

Sequence: GLITGGRRT
pIC50 (HLA-A*02:01 [13]; [35]): 4.83 | pIC50 (HLA-A*03:01 [14]; [35]): ≤ 3.85 | pIC50 (HLA-A*11:01 [15]; [35]): ≤ 4.00 | pIC50 (HLA-A*24:02 [16]; [35]): 4.72

Sequence: IITPIVFYR
pIC50 (HLA-A*02:01 [13]; [36]): ≤ 3.88 | pIC50 (HLA-A*03:01 [14]; [36]): 5.83 | pIC50 (HLA-A*11:01 [15]; [36]): 6.58 | pIC50 (HLA-A*24:02 [16]; [36]): 4.69

Sequence: ISNSVAQAR
pIC50 (HLA-A*03:01 [14]; [35]): ≤ 3.96 | pIC50 (HLA-A*11:01 [15]; [35]): 4.31

Sequence: KAIDFLLQR
pIC50 (HLA-A*02:01 [13]; [35]): 5.02 | pIC50 (HLA-A*03:01 [14]; [35]): 4.54 | pIC50 (HLA-A*11:01 [15]; [35]): 6.16 | pIC50 (HLA-A*24:02 [16]; [35]): ≤ 3.79

Sequence: KAKGSRAIW
pKd (HLA-B*57:01 [1]; [37]): 8.00 | pKd (HLA-B*58:01 [2]; [37]): 6.55

Sequence: KASFIEVKSC
pKd (HLA-B*57:01 [1]; [33]): 6.96 | pKd (HLA-B*58:01 [2]; [33]): 6.43

Sequence: KILTAGLSV
pIC50 (HLA-A*02:01 [13]; [35]): 5.59 | pIC50 (HLA-A*03:01 [14]; [35]): 4.44 | pIC50 (HLA-A*11:01 [15]; [35]): ≤ 3.80

Sequence: KLRSNALSL
pKd (HLA-B*07:02; [38]): 8.10 | pKd (HLA-B*15:01 [9]; [38]): 7.60 | pKd (HLA-B*51:01 [17]; [38]): ≤ 4.70

pKd (HLA-A*01:01; [39]): ≤ 4.70 | pKd (HLA-A*02:01 [3]; [39]): ≤ 4.70 | pKd (HLA-A*03:01 [4]; [39]): ≤ 4.70 | pKd (HLA-A*11:01 [5]; [39]): ≤ 4.70 | pKd (HLA-A*24:02 [6]; [39]): ≤ 4.70 | pKd (HLA-A*69:01 [8]; [39]): ≤ 4.70 | pKd (HLA-B*07:02; [39]): 7.17 | pKd (HLA-B*15:01 [9]; [39]): ≤ 4.70 | pKd (HLA-B*18:01 [18]; [39]): ≤ 4.70 | pKd (HLA-B*27:05; [39]): ≤ 4.70 | pKd (HLA-B*40:01; [39]): ≤ 4.70 | pKd (HLA-B*44:02; [39]): ≤ 4.70 | pKd (HLA-B*58:01 [10]; [39]): ≤ 4.70
Sequence: KPKLKVATL

Sequence: LPTKLRPSA
pKd (HLA-B*07:02; [40]): 6.99 | pKd (HLA-B*51:01 [17]; [40]): ≤ 4.70

Sequence: PLARTAKVK
pIC50 (HLA-A*03:01 [14]; [35]): 5.38 | pIC50 (HLA-A*11:01 [15]; [35]): 4.32

Sequence: PPDGVRGFP
pIC50 (HLA-A*03:01 [14]; [34]): 4.17 | pIC50 (HLA-A*11:01 [15]; [34]): 4.20

pKd (HLA-A*01:01; [39]): ≤ 4.70 | pKd (HLA-A*02:01 [3]; [39]): ≤ 4.70 | pKd (HLA-A*03:01 [4]; [39]): ≤ 4.70 | pKd (HLA-A*11:01 [5]; [39]): ≤ 4.70 | pKd (HLA-A*24:02 [6]; [39]): ≤ 4.70 | pKd (HLA-A*69:01 [8]; [39]): ≤ 4.70 | pKd (HLA-B*07:02; [39]): ≤ 4.70 | pKd (HLA-B*15:01 [9]; [39]): ≤ 4.70 | pKd (HLA-B*18:01 [18]; [39]): ≤ 4.70 | pKd (HLA-B*27:05; [39]): ≤ 4.70 | pKd (HLA-B*40:01; [39]): ≤ 4.70 | pKd (HLA-B*46:01 [19]; [39]): ≤ 4.70 | pKd (HLA-B*58:01 [10]; [39]): ≤ 4.70
Sequence: QMRVRYYGL

Sequence: RKAIDFLLR
pIC50 (HLA-A*03:01 [14]; [34]): ≤ 3.67

Sequence: RPQHVKKSA
pKd (HLA-B*07:02; [41]): 8.07 | pKd (HLA-B*15:01 [9]; source organism: Bacillus cereus NVH0597-99): ≤ 4.70 | pKd (HLA-B*51:01 [17]; [41]): ≤ 4.70

pKd (HLA-A*01:01; source organism: Homo sapiens): 7.20 | pKd (HLA-A*02:01 [20]): ≤ 4.70 | pKd (HLA-A*26:01 [21]): ≤ 4.70 | pKd (HLA-A*69:01 [22]): ≤ 4.70 | pKd (HLA-B*15:01 [23]): ≤ 4.70 | pKd (HLA-B*15:17 [24]): ≤ 4.70 | pKd (HLA-B*18:01 [25]): ≤ 4.70 | pKd (HLA-B*27:03): ≤ 4.70 | pKd (HLA-B*39:01): ≤ 4.70 | pKd (HLA-B*46:01 [26]): ≤ 4.70 | pKd (HLA-B*51:01 [27]): ≤ 4.70 | pKd (HLA-B*57:01 [28]): ≤ 4.70
Sequence: RTDNGGWAH

Sequence: RVFNGDDVK
pKd (HLA-A*01:01; [42]): ≤ 4.70 | pKd (HLA-A*02:01 [3]; [42]): ≤ 4.70 | pKd (HLA-A*03:01 [4]; [42]): 5.86 | pKd (HLA-A*11:01 [5]; [42]): 6.60 | pKd (HLA-A*24:02 [6]; [42]): ≤ 4.70 | pKd (HLA-A*26:01 [7]; source organism: Yersinia pestis CA88-4125): ≤ 4.70 | pKd (HLA-A*31:01; [42]): 5.38 | pKd (HLA-A*69:01 [8]; [42]): ≤ 4.70 | pKd (HLA-B*07:02; [42]): ≤ 4.70 | pKd (HLA-B*15:01 [9]; [42]): ≤ 4.70 | pKd (HLA-B*18:01 [18]; [42]): ≤ 4.70 | pKd (HLA-B*27:05; [42]): ≤ 4.70 | pKd (HLA-B*40:01; [42]): ≤ 4.70 | pKd (HLA-B*44:02; [42]): ≤ 4.70 | pKd (HLA-B*46:01 [19]; [42]): ≤ 4.70 | pKd (HLA-B*58:01 [10]; [42]): ≤ 4.70

Sequence: SASEAVNDSR
pKd (HLA-B*57:01 [1]; [32]): 5.86 | pKd (HLA-B*58:01 [2]; [32]): 7.40

Sequence: TSSQQKADWI
pKd (HLA-B*57:01 [1]; [33]): 5.59 | pKd (HLA-B*58:01 [2]; [33]): 5.97

Sequence: WMAEIPLQW
pKd (HLA-A*24:02 [29]): 6.76 | pKd (HLA-B*58:01 [2]; [37]): 7.86
